Source: PMC9649962, “Early diagnosis of bladder cancer by photoacoustic imaging of tumor-targeted gold nanorods” (Photoacoustics, 2022)

Assays:
MB49-Luc cells = assay: Cell adhesion to GNR-coated plates, MB49-Luc; type: cell-based, murine; conditions: excess of free Iso4, plates coated with 250 µg/ml GNRs@Chit-Iso4
Protocol: (§1) The plates were washed and blocked with 2% BSA in DMEM or RPMI-1640 (200 μl/well, 1 h). MB49-Luc and 5637 cells were detached with DPBS-E, washed twice with DPBS, and suspended in DMEM or RPMI-1640 containing 0.1% BSA (binding buffer-3), and added to the coated-plates (1.5 ×10^5 cells/well, 100 μl). After 1–2 h of incubation at 37 °C, 5% CO2, the plates were washed with binding buffer-3. Adherent cells were fixed and stained with 0.5% crystal violet in 20% methanol. After washing with water, the dye was extracted from cells using a 10% acetic acid solution (140 μl/well) and the absorbance at 570 nm was measured using a microplate reader.

5637 cells = assay: Cell adhesion to GNR-coated plates, 5637; type: cell-based, human; conditions: excess of free Iso4, plates coated with 250 µg/ml GNRs@Chit-Iso4
Protocol: as §1

[1] = tested on: MB49-Luc orthotopic bladder tumor; assay: In vivo PAI of orthotopic MB49-Luc bladder tumor; set-up: species or system mouse; conditions: co-administration of excess free peptide (296 µg) with GNRs@Chit-Iso4 (1.5 nmol Au); two mice per condition
Protocol: All procedures and studies involving mice were approved by the Institutional Animal Care and Use Committee of San Raffaele Scientific Institute and performed according to the prescribed guidelines (IACUC, approval number 942). Female albino C57BL/6 J mice (9 weeks old, weighing about 20 g, Charles River Laboratories, Italy) were anesthetized with ketamine (80 mg/kg) and xylazine (15 mg/kg) and kept in dorsal position. Using a 24-gauge catheter, the bladder of each mouse was emptied and instilled with or without MB49-Luc cells (10^5 cells/100 μl in DPBS). Thirty minutes later the catheter was removed, and mice were allowed to recover and returned to their cage. Tumor growth was monitored by measuring the tumor volume through US imaging (see below) and in vivo bioluminescent quantification after administration of luciferin (15 mg/kg, intra peritoneum) using the non-invasive In Vivo Imaging System (IVIS, PerkinElmer, USA). […]

[2] = molecular target: Wild-type human integrin α5β1 (octyl β-D-glucopyranoside preparation) (human) (UniProt P08648); assay: ELISA; α5β1 (4 μg/ml) coated on PVC microtiter plates; Iso4-HRP or ARA-HRP 0–400 nM in 25 mM Tris-HCl pH 7.4, 150 mM sodium chloride, 1 mM magnesium chloride, 1 mM manganese chloride, 1% BSA, 2 h; no detergent; bound peroxidase by OPD, absorbance at 490 nm; effect of urine: Iso4-HRP 300 nM mixed with human urine (11.5–90%)
UniProt P08648, sequence (P08648 42-1049, chain 1 of 2): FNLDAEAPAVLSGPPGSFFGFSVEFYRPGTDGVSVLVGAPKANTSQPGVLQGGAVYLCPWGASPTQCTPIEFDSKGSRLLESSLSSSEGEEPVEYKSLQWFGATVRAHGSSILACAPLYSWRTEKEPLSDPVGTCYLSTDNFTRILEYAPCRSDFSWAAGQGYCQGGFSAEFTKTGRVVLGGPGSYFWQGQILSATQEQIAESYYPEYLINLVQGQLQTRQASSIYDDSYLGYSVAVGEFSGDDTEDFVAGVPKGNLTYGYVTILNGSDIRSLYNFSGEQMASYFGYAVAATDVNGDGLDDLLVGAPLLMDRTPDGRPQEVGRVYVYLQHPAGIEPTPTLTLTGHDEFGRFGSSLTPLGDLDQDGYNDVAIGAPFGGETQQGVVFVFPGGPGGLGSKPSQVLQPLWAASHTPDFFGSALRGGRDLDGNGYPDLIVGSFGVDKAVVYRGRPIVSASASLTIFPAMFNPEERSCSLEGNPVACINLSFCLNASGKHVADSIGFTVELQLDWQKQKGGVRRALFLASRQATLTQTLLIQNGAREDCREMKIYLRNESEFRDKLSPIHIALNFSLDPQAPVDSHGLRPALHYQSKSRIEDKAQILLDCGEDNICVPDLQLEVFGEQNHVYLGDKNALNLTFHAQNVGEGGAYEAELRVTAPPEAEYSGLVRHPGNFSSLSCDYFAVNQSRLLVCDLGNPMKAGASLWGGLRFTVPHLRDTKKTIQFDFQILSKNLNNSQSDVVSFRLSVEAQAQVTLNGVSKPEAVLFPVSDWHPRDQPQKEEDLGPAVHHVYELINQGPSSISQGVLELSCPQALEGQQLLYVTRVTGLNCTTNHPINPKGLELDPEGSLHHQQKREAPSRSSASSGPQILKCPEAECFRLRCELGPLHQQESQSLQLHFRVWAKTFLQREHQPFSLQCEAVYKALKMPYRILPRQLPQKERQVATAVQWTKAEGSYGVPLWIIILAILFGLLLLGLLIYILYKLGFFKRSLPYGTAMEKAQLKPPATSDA
UniProt P08648, sequence (P05556 21-798, chain 2 of 2, further chain): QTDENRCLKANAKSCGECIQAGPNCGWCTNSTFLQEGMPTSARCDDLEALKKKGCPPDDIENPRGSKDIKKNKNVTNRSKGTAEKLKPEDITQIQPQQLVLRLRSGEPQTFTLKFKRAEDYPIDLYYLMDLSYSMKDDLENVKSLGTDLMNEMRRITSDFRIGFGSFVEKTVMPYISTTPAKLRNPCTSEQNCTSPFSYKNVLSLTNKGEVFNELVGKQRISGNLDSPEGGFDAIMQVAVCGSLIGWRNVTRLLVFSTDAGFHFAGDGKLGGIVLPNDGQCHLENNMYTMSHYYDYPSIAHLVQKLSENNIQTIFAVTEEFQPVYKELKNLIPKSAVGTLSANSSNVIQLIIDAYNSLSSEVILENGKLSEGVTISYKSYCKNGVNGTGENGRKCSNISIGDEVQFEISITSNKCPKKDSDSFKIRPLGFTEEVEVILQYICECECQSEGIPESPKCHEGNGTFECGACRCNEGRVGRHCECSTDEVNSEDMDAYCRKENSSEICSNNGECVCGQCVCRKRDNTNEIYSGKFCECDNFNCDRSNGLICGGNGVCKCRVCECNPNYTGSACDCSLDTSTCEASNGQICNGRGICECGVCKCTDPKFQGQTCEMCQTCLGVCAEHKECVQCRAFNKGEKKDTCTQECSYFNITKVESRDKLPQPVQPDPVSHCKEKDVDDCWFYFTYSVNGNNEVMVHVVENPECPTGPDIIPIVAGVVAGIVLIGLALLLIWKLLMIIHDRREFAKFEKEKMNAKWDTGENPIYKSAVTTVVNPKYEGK

[3] = molecular target: α5β1 integrin on human bladder cancer 5637 cells (human (endogenous in 5637)) (UniProt P08648)
[4] = molecular target: α5β1 integrin on murine bladder cancer MB49-Luc cells (mouse (endogenous in MB49-Luc)) (UniProt P11688)
UniProt P11688, sequence (P11688 45-1053, chain 1 of 2): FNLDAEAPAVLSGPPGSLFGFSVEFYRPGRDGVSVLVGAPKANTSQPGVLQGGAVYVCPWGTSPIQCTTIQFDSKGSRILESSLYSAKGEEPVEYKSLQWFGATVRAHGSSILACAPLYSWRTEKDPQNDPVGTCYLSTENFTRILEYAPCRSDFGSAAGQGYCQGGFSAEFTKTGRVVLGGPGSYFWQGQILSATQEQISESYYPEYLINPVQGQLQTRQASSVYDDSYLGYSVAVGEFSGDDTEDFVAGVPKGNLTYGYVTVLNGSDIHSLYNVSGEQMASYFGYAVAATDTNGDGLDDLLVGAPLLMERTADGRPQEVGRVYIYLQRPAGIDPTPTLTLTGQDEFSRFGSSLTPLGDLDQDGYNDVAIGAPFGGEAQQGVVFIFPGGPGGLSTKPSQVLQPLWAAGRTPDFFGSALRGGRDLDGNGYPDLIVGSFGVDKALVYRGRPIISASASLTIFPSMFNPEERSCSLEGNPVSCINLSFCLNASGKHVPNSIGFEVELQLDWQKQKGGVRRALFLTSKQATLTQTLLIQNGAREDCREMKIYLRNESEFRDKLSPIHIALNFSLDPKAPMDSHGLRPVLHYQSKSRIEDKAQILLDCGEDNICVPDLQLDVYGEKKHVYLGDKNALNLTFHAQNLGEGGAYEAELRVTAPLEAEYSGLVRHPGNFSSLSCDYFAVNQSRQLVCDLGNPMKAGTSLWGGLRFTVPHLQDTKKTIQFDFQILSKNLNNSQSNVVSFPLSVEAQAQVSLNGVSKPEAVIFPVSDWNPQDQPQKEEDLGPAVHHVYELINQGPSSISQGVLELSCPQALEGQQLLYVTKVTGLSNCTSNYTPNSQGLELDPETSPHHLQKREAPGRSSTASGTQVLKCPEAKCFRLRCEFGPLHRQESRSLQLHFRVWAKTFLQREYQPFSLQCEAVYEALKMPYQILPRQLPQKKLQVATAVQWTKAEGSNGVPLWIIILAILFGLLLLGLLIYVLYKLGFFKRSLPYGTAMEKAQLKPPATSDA
UniProt P11688, sequence (P09055 21-798, chain 2 of 2, further chain): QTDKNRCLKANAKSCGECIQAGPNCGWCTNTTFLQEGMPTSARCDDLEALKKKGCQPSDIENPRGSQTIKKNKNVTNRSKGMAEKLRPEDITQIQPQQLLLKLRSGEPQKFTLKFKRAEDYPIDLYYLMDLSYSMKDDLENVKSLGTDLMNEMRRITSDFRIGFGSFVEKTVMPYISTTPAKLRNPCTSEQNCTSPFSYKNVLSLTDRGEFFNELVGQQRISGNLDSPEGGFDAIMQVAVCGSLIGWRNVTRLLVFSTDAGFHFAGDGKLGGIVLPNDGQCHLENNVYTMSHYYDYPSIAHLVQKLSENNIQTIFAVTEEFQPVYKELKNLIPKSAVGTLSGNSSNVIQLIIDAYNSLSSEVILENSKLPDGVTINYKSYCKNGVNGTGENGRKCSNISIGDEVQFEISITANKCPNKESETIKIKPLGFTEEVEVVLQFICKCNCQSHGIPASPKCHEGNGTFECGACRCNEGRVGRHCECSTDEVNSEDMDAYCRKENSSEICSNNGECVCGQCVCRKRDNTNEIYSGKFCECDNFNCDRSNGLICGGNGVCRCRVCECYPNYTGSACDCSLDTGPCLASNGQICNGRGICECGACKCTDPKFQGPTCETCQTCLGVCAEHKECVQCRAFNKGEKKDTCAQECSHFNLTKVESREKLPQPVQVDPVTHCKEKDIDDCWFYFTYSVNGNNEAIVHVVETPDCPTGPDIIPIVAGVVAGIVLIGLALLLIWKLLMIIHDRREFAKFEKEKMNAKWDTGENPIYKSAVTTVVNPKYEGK

[5] = molecular target: α5β1 integrin on murine bladder cancer MB49-Luc cells (mouse (endogenous in MB49-Luc)) (UniProt P11688); remark: listed apart in the source

c(CphgisoDGRG) (head to tail) [Iso4]
inhibition of cell adhesion by free peptide (MB49-Luc cells): completely inhibited cell adhesion | inhibition of cell adhesion by free peptide (5637 cells): completely inhibited cell adhesion | effect of free peptide on tumor binding of GNR@Chit-Iso4 [1]: reduced by co-administration of an excess of free Iso4 peptide

Iso4-HRP (head-to-tail cyclized peptide c(CphgisoDGRG), Iso4, conjugated to maleimide-activated horseradish peroxidase)
recovery of binding in 90% human urine [2]: 55%

GNRs@Chit-Iso4 (chitosan-coated gold nanorods functionalized with Iso4 through a maleimide-PEG12-NHS linker) (peptide)
EC50 of adhesion of 5637 cells to plates coated with GNRs@Chit-Iso4 [3]: 1.3 µg/mL | EC50 of adhesion of MB49-Luc cells to plates coated with GNRs@Chit-Iso4 [4]: 0.73 µg/mL | increase of MB49-Luc cell adhesion to GNRs@Chit-Iso4-coated plates in DMEM containing 25–75% human urine [5]: 20%
